Experimental data published in doi:10.1101/2025.02.04.636450.

What was measured:
[1] = biological target: circularly permuted AaLS with a Strep II tag in place of the His-tag region (cpAaLS(Strep)) (Aquifex aeolicus)
[2] = biological target: circularly permuted AaLS with a His-tag in the linker connecting native termini (cpAaLS(His)) (Aquifex aeolicus); assay: absorbance ratio at 280/475 nm
[3] = biological target: wildtype lumazine synthase from Aquifex aeolicus (AaLS-wt) (Aquifex aeolicus) (UniProt O66529); assay: absorbance ratio at 280/475 nm

stoichiometry N [1] | Substance | GFP molecules per pentamer (GFP molecules per pentamer) [2] | GFP molecules per pentamer (GFP molecules per pentamer) [3]
5 | circularly permuted AaLS with a Strep II tag in place of the His-tag region (cpAaLS(Strep)) |  | 
 | cpAaLS-GFP-SsrA (GFP-SsrA fused to the C-terminus of cpAaLS) | 0.14 | 0.11
